US20250304713A1, “COMBINATION IMMUNOTHERAPY COMPOSITIONS AND METHODS OF USE THEREOF” (THE PENN STATE RESEARCH FOUNDATION, priority 2022, published 2025)

Key:
9464D-GD2 cells = assay: Cell viability, CellTiter-Glo; format: cell-based, mouse; conditions: 0.1 μM tipifarnib; 24, 48, 72 h
Method: 9464D-GD2 cells were seeded in a white, opaque 96-well plate. The following day, cells were treated with increasing doses of tipifarnib, and cell viability was measured at 24, 48 and 72 hours post-treatment using the CellTiter-Glo® Luminescent Cell Viability Assay (Promega, G7573) according to manufacturer's instructions. Microplate luminescence was measured using a CLARIOstar (BMG Labtech) plate reader. All data were normalized to non-treated controls. 9464D cells or 9464D crRab27a cells were plated at a density of 5000 cells/well in a 96-well plate and monitored for confluence using the Incucyte S3 μLive Cell Imaging System (Sartorius). The percent cell confluence was quantified using Incucyte Basic Cell Analysis package (Sartorius).

splenic NK cells = assay: Flow cytometry of splenic NK cell subpopulations (maturation); format: in vivo, mouse
Method: (§1) Murine tumors and spleens were harvested at the experimental endpoint and mechanically disassociated. Tumors were further digested with tumor digestion buffer ([…] Collagenase Type I (Thermo Fisher, 17018029) and 2000 Units/ml DNase (Sigma-Aldrich, DN25-100MG) in HBSS buffer at room temperature for 1 hour. Dissociated tumor cells and spleen cells were passed through a 70 μm cell strainer (Falcon BD, 352350), pelleted, and washed once with PBS supplemented with 1% FBS. Red blood cells were lysed with RBC lysis buffer (0.0155 M NH4Cl, 1.2 mM NaHCO3, 0.01 mM Na2EDTA, pH 7.4 in distilled water) for 3 minutes on ice and neutralized with PBS supplemented with 10% FBS. Cells were centrifuged and resuspended in FACS buffer to obtain single cell suspensions.
(§2) All animal studies were performed according to guidelines established by the Institutional Animal Care and Use Committee (IACUC) at the Penn State College of Medicine (Hershey, PA). An immunocompetent mouse model of neuroblastoma was generated by subcutaneously injecting 1×10^6 9464D-GD2 cells in a 50:50 mixture of DMEM and Matrigel (Corning, 354234) into C57BL/6J mice (8- to 10-week-old, JAX 000664) with male and female mice represented at an equal ratio. One week following tumor cell inoculation, mice were randomized into treatment groups. Where indicated, mice were treated twice-weekly by tail-vein injection with PBS (100 μL), dinutuximab ([…] in 100 μL PBS), purified sEVs from 9464D-GD2 cells ([…] in 100 μL PBS), or the combination of dinutuximab and sEVs. Where indicated, tipifarnib (25 mg/kg) or an equivalent volume of vehicle was administered twice daily by oral gavage. Primary tumor growth was monitored by measuring tumor volume using calipers (volume=π(length*width^2)/6). At the experimental endpoint, mice were euthanized, and tumor, blood, spleen and bone marrow were harvested for ex vivo analysis. Endpoint tumor volume was calculated by measuring tumors using calipers (volume=π(length*width*height)/6). […]

[1] = system: tumor-infiltrating NK cells, T-cells and tumor-associated macrophages in 9464D-GD2 tumors; assay: Flow cytometry of tumor-infiltrating immune cells (NK cells, T-cells, TAMs); format: in vivo, mouse
Method: as §1
(§3) All animal studies were performed according to guidelines established by the Institutional Animal Care and Use Committee (IACUC) at the Penn State College of Medicine (Hershey, PA). An immunocompetent mouse model of neuroblastoma was generated by subcutaneously injecting 1×10^6 9464D-GD2 cells in a 50:50 mixture of DMEM and Matrigel (Corning, 354234) into C57BL/6J mice (8- to 10-week-old, JAX 000664) with male and female mice represented at an equal ratio. One week following tumor cell inoculation, mice were randomized into treatment groups. Where indicated, mice were treated twice-weekly by tail-vein injection with PBS (100 μL), dinutuximab ([…] in 100 μL PBS), purified sEVs from 9464D-GD2 cells ([…] in 100 μL PBS), or the combination of dinutuximab and sEVs. Where indicated, tipifarnib (25 mg/kg) or an equivalent volume of vehicle was administered twice daily by oral gavage. Primary tumor growth was monitored by measuring tumor volume using calipers (volume=π(length*width^2)/6). At the experimental endpoint, mice were euthanized, and tumor, blood, spleen and bone marrow were harvested for ex vivo analysis. Endpoint tumor volume was calculated by measuring tumors using calipers (volume=π(length*width*height)/6).
For cell surface staining, approximately 1×10^6 cells were stained with pre-mixed antibody cocktail panels (Table 1) in 100 μL FACS buffer (1% FBS, 0.2% NaN3 in PBS) for 30 minutes on ice. Cells were washed twice with FACS buffer and fixed with 2% paraformaldehyde (Fisher Scientific, 50-980-487) for 15 minutes. Fixed cells were washed once with PBS and resuspended in 0.5 mL FACS buffer for flow cytometric analysis using a LSR II or Symphony flow cytometer (BD Biosciences). Compensation was performed using UltraComp eBeads™ compensation beads (Invitrogen). FlowJo™ v10 (FlowJo, LLC) software was used for data analysis.

9464D-GD2 tumors = assay: 9464D-GD2 syngeneic subcutaneous neuroblastoma model, tumor growth, volume and weight; format: in vivo, mouse
Method: as §3

[2] = system: NK cells (NK1.1+CD3-) in blood; assay: Flow cytometry of blood NK cells of tumor-bearing mice; format: in vivo, mouse
Method: as §2

[3] = day 30, treatment as FIG. 1D (FIG. 3C)
[4] = day 24, treatment as FIG. 4D (FIG. 5A)

Molecule	cytotoxicity (cell viability) (9464D-GD2 cells)	percentage of mature NK cells in the spleen (CD27-CD11b+) (splenic NK cells; day 24, treatment as FIG. 4D, vs control or tipifarnib alone (FIG. 5C))	percentage of mature splenic NK cells (CD27-CD11b+) (splenic NK cells; [3])	percentage of splenic NK cells with immature phenotype (CD27+CD11b-) (splenic NK cells; [3])	TAM population (CD11b+F4/80+) [1, 4]	tumor-infiltrating NK cells (NK1.1+CD3-) [1, 4]	tumor-infiltrating T-cells (CD3+NK1.1-) [1, 4]	tumor-associated macrophage (TAM) population (CD11b+F4/80+) ([1]; day 30, treatment as FIG. 1D (FIG. 2E bottom))	tumor-infiltrating NK cell population (NK1.1+CD3-) ([1]; day 30, treatment as FIG. 1D (FIG. 2E top))	tumor growth (tumor volume over time) (9464D-GD2 tumors; dinutuximab 1.25 mg/kg and/or 9464D-GD2 sEVs 20 μg, tail vein twice weekly from one week post-inoculation, to day 30, vs PBS (FIG. 1E))	tumor growth and weight, sEV rescue experiment (9464D-GD2 tumors; dinutuximab and/or tipifarnib with or without sEVs, day 24 (FIG. 6B-D))	level of circulating NK cells (mobilization) ([2]; day 24, treatment as FIG. 4D (FIG. 5B))	percentage of serum (blood) NK cells, NK cell mobilization ([2]; day 30, treatment as FIG. 1D (FIG. 2F))
Cn1cncc1[C@@](N)(c1ccc(Cl)cc1)c1ccc2c(c1)c(-c1cccc(Cl)c1)cc(=O)n2C [tipifarnib]	absence of cytotoxicity	–	–	–	–	–	–	–	–	–	–	–	–
dinutuximab (antibody, chains of the INN, looked up, V domains shown, chimeric monoclonal antibody against the disialoganglioside GD2) VH: EVQLLQSGPELEKPGASVMISCKASGSSFTGYNMNWVRQNIGKSLEWIGAIDPYYGGTSYNQKFKGRATLTVDKSSSTAYMHLKSLTSEDSAVYYCVSGMEYWGQGTSVTVSS VL: EIVMTQSPATLSVSPGERATLSCRSSQSLVHRNGNTYLHWYLQKPGQSPKLLIHKVSNRFSGVPDRFSGSGSGTDFTLKISRVEAEDLGVYFCSQSTHVPPLTFGAGTKLELK	–	significantly increased the percentage of mature NK cells in the spleen	increased the percentage of mature splenic NK cells	significantly decreased the percentage of splenic NK cells with an immature phenotype	decreasing TAMs	enhancing the mobilization of NK cells and percentages of tumor-infiltrating NK cells and T-cells	enhancing the mobilization of NK cells and percentages of tumor-infiltrating NK cells and T-cells	significantly decreased the TAM population	significantly increased the tumor-infiltrating NK cell population	dramatically suppressed tumor growth	mild anti-tumor activity alone	enhancing the mobilization of NK cells	significant increase in the percentage of serum NK cells
